Data: paper PMC8996237

Columns and labels:
[1] = biological target: hCMP-mRBD from a stable HEK293 suspension cell line (human | HIV-1 JR-FL | SARS-CoV-2) (UniProt P0DTC2); assay: SDS-PAGE
[2] = biological target: hCMP-mRBD from a stable CHO suspension cell line (human | HIV-1 JR-FL | SARS-CoV-2) (UniProt P0DTC2); assay: SDS-PAGE

hCMP-mRBD from a stable HEK293 suspension cell line (from UniProt P0DTC2 332-532)
stoichiometry N [1]: 3

hCMP-mRBD from a stable CHO suspension cell line (from UniProt P0DTC2 332-532)
stoichiometry N [2]: 3
